Measurements taken from patent US20170174769A1 (Regeneron, published 2017).
Several values for one entry are separate records, joined by “and”; a condition that tells them apart may be missing. Identical values can stand only once. Like-named read-outs stand apart in the source and are kept apart here.

T1: recombinant cynomolgus monkey FGF21 with an N-terminal hexahistidine tag (cynomolgus monkey)
T1 construct: also called His6-MfFGF21; mfFGF21
T1 chain: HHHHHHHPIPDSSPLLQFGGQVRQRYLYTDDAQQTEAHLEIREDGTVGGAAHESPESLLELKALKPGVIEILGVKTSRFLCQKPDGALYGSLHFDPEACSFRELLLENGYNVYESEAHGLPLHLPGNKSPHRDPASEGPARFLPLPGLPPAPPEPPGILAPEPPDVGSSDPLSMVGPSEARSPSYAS

T2: biotinylated human FGF21 expressed with a N-terminal hexahistidine tag (human, UniProt Q9NSA1 29-209, biotinylated (site not stated))
T2 construct: also called biotin-6His-hFGF21; biotin 6His-hFGF21
T2 sequence: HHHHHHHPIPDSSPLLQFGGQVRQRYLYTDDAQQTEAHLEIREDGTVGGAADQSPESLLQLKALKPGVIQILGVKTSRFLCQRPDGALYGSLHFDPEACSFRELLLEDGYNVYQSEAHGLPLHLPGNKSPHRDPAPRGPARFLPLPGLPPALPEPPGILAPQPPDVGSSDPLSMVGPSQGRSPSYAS

T3: mouse FGF21 (mouse, UniProt Q9JJN1 29-210)
T3 construct: also called mFGF21 (Prospec, # CYT-339)
T3 sequence (looked up): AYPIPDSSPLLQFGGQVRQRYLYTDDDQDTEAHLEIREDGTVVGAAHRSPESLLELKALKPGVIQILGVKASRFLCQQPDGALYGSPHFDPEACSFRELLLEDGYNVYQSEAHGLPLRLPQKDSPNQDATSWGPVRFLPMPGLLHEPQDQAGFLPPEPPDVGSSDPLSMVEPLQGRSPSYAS

T4: rat FGF21 (rat, UniProt A0A7U3JW68 29-208)
T4 sequence: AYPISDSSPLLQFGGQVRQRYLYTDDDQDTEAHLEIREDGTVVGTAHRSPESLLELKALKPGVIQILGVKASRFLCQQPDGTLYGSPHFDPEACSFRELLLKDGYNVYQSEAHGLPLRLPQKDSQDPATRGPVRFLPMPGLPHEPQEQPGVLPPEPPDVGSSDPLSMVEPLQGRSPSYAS

B1: H2M6499N (antibody, V domains shown)
VH: QVHLVQSGAEVKKPGASVKVSCKASGYSFTDYYVHWVRQAPGQGLEWMGWFNPKSGDTNSVQKFQGRVSMTGDTSITTAYLDLRRLTSDDTAVYYCGRSGYFDFWGQGTLVTVSS
VL: DVVMTQSPLSLSVTLGQPASISCRSSQSLVFSDGNTFLNWFQQRPGQSPRRLIYNLSNRDSGVPDRFSGSGSGTDFTLKISGVEAEDVGVYYCMQGTHWPLTFGGGTKVEIK
notes: human variable domains, mouse IgG2 Fc (H2M prefix); also called H2aM6499N
B2: recombinant human FGF21 expressed with an N-terminal hexahistidine tag (ligand)
chain: T2 sequence
B3: H2M6504N (antibody, V domains shown)
VH: EVHLVESGGGLVQPGRSLRLSCVASGFTFDDYAMHWVRQVPGKGLEWVSVITWNSGSIGYADSVKGRFTISRDNAKNSLFLQVSSLRAEDTALYYCAKGISPTGTTPDYWGQGTLVTVSS
VL: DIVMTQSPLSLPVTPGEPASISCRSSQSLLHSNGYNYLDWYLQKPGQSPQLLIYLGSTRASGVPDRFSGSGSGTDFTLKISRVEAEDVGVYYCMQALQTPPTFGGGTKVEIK
notes: mouse IgG2 Fc (H2M prefix); also called H2aM6504N
B4: H2M6509N (antibody, V domains shown)
VH: EVQLVESGGGLVKPGGSLRLSCAASGFTFSNAWMSWVRQAPGKGLDWVGRIKNKLDGGTTDYAAPVKGRFTISRDDSKNTLYLQMNSLKTEDTAVYYCTTDHGWNYYYGMDVWGQGTTVTVSS
VL: DIQMTQSPSSLSASVGDRVTITCRASQDISNYLAWFQHKPGKAPKSLIYAASSLQGGVPSKFSGSGSGTDFTLTISSLQPEDFATYYCQQYNTYPPTFGAGTKVEIK
notes: mouse IgG2 Fc (H2M prefix); also called H2aM6509N
B5: H4H6879P (antibody, V domains shown)
VH: QVQLQESGPGLVKPSETLSLTCTVSGGSISGYYWSWIRQPPGKGLEWIGYFYNSGSTNYNPSLKSRVTMSVDTSKNQFSLRLTSVTAADTAVYYCTRERELLYFDYWGQGTLVTVSS
VL: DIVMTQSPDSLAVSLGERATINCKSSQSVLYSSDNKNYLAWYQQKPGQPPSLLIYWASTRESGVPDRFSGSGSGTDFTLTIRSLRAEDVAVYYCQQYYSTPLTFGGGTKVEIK
notes: human IgG4 Fc (H4H prefix)
B6: H4H6915P (antibody, V domains shown)
VH: QVQLVESGGGVVQPGRSLRLSCAASGFTFSSYVMHWVRQAPGKGLEWVSVISYDGGNKYYADSVKGRFTISRDNSKNTLDLQMNSLRAEDTAVYYCAKEDDYIWGGFFDLWGRGTLVTVSS
VL: DIQMTQSPSSLSASVGDRVTITCRASQGIRNDLGWYQKKPGKAPKRLISAAYSLQSGVTSRFSGSGSGTEFTLTISSLQPEDFATYYCLQHNSYPWTFGQGTKVEIK
notes: human IgG4 Fc (H4H prefix)
B7: H4H6504N (antibody, V domains shown)
VH: B3 VH
VL: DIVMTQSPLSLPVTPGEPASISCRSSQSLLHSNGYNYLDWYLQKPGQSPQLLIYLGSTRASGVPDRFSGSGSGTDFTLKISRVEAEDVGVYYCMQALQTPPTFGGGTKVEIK
notes: 6504N variable domains on human IgG4 Fc (H4H prefix)

Key:
[1] = target: B2; test: cell-based or functional assay
[2] = target: B2; test: SPR Biacore 4000, mAb captured, 25 C
Protocol: (§1) Antibodies were captured on a goat anti-mouse IgG polyclonal antibody (GE Healthcare, BR-1008-38) surface created through direct amine coupling of the anti-IgG antibodies to a Biacore CM5 sensor chip. Kinetic experiments were carried out using HBS-EP (10 mM HEPES, 150mM NaCl, 3 mM EDTA, 0.05% Surfactant P20, pH 7.4) as both the running buffer and the sample buffer. […] Antibody-antigen association was monitored for 180 seconds while dissociation in buffer was monitored for 300 seconds. Kinetic association (kₐ) and dissociation (kd) rate constants were determined by processing and fitting the data using Scrubber software version 2.0c. Binding dissociation equilibrium constants (KD) and dissociative half-lives (t_{1/2}) were calculated from the kinetic rate constants as: KD =kd/kₐ and t112 =In(2)/kd.

[3] = target: T1, recombinant cynomolgus monkey FGF21 …; test: SPR Biacore 4000, mAb captured, 25 C
Protocol: as §1

[4] = target: T2, biotinylated human FGF21 expressed with …; test: competition ELISA: mAb blocks 300 pM biotin-6His-hFGF21 binding to coated hKLB-10his
Protocol: The ability of anti-FGF21 antibodies to block human FGF21 binding to a cognate binding partner human klotho beta was evaluated with an ELISA-based immunoassay. Briefly, human klotho beta (hKLB-10his; R&D systems, #5889-KB-050) was coated at 2μg/mL on a 96-well plate in PBS buffer overnight at 4° C. […] The equilibrated sample solutions were then transferred to hKLB-10his-coated plates. […] Samples were developed with a TMB solution to produce a colorimetric reaction and then neutralized with 1M sulfuric acid before measuring absorbance at 450 nm on a Victor plate reader. Data analysis was performed using a sigmoidal dose-response model within Prism™ software (GraphPad).
The absorbance values of the wells containing the highest concentration for each antibody were used to determine the percent maximum blockade.

[5] = target: B2; test: SPR Biacore 4000, mAb captured, 37 C
Protocol: as §1

[6] = target: T1, recombinant cynomolgus monkey FGF21 …; test: SPR Biacore 4000, mAb captured, 37 C
Protocol: as §1

[7] = target: T5, cell-surface human FGFR1c (amino acids 1-731 of NP_075594) with cell-surface human KLB on … (human, UniProt P11362 22-822); test: cell-based or functional assay
T5 sequence (P11362 22-822, chain 1 of 2): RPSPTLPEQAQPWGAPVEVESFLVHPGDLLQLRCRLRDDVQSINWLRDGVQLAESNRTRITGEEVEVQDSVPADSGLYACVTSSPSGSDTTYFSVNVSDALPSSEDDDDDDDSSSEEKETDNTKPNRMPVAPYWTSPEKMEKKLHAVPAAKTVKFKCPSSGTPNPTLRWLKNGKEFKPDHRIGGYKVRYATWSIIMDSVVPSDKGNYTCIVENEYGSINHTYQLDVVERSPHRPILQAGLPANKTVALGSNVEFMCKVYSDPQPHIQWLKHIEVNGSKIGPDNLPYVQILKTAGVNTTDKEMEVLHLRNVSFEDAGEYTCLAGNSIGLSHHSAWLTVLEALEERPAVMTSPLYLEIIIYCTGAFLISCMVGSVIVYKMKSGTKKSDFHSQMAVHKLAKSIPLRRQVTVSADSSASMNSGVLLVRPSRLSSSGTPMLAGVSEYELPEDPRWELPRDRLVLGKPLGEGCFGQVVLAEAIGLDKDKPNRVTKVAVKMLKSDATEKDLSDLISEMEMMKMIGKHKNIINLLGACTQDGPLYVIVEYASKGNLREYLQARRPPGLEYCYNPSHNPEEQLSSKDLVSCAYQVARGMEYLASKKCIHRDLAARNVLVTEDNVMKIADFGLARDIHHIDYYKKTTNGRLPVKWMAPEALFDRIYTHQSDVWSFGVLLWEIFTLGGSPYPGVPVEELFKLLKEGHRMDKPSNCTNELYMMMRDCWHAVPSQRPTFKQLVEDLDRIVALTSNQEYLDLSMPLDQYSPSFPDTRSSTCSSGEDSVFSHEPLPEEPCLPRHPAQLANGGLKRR
T5 sequence (chain, as listed by the source, chain 2 of 2): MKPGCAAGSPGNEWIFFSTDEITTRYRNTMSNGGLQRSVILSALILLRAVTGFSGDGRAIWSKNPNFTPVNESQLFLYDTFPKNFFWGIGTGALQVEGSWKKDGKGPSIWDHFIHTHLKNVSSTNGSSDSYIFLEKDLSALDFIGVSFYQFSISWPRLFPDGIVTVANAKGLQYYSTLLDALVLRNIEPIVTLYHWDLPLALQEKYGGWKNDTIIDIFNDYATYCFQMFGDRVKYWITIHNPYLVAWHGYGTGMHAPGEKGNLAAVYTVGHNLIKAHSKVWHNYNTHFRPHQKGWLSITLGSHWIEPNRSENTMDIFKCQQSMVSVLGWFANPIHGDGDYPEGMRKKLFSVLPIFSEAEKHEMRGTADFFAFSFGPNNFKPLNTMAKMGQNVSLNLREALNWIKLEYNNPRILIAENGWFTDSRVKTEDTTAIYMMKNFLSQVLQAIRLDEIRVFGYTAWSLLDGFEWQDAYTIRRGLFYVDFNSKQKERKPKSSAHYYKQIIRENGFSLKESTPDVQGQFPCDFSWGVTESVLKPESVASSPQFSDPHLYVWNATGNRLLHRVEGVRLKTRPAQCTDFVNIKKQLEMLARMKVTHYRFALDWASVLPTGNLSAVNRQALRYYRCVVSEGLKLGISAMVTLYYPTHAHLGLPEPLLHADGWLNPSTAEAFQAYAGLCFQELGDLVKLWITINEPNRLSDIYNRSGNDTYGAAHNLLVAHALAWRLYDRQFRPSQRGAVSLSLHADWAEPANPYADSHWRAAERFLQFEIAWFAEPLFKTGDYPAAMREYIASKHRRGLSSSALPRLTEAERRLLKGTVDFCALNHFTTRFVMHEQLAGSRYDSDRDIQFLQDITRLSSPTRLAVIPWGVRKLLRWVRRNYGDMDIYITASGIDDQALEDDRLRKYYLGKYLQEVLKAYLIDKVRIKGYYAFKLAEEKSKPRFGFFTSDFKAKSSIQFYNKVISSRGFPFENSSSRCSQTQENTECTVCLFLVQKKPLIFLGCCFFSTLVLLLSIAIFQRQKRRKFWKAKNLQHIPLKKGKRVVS

[8] = target: T5, cell-surface human FGFR1c (amino acids …); test: cell-based or functional assay; remark: listed apart in the source
[9] = target: mouse KLB and mouse FGFR1c co-expressed on HEK293/mKLB/mFGFR1c/SRE-Luc cells (mouse); test: cell-based or functional assay
[10] = target: T6, human KLB and human FGFR1c co-expressed on HEK293/hKLB/hFGFR1c/SRE-luc cells (human, UniProt Q86Z14 1-1044; P11362 22-822); test: cell-based or functional assay
T6 sequence (Q86Z14 whole entry, chain 1 of 2): as the sequence (chain, as listed by the source, chain 2 of 2) above
T6 sequence (P11362 other isoform, or with tags, fused parts or gaps limits assumed, chain 2 of 2): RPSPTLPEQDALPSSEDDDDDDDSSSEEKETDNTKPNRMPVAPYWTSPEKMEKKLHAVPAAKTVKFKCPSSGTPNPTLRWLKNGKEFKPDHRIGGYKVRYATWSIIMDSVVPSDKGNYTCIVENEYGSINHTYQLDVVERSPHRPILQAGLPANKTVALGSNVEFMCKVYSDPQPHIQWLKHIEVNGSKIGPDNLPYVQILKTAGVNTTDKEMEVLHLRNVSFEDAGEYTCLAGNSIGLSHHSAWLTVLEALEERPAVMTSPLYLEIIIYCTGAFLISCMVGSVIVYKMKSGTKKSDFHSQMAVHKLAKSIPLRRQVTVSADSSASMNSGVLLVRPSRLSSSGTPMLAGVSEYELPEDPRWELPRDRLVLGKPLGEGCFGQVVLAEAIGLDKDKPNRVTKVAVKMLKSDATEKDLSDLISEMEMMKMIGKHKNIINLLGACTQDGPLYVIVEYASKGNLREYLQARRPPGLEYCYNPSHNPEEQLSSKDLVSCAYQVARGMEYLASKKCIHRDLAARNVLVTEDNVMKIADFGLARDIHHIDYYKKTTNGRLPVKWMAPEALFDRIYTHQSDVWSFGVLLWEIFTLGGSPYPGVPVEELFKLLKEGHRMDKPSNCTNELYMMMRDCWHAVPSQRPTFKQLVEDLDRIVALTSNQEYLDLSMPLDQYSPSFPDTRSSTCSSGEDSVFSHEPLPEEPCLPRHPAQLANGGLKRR

[11] = target: T6, human KLB and human FGFR1c co-expressed …; test: cell-based or functional assay; remark: listed apart in the source
[12] = target: T6, human KLB and human FGFR1c co-expressed …; test: cell-based or functional assay; remark: listed apart in the source
[13] = target: T3, mouse FGF21; test: not described
[14] = target: T4, rat FGF21; test: not described

Binder | IC50, inhibition of 1 nM FGF21 activation of 293/hKLB/FGFR1c/SRE-Luc cells [1] | Kd [2] | koff [2] | kon [2] | t1/2 [2] | Kd [3] | koff [3] | kon [3] | t1/2 [3] | % Blocking at 100 nM Antibody Concentration [4] | IC50 [4] | Kd [5] | koff [5] | kon [5] | t1/2 [5] | Kd [6] | koff [6] | kon [6] | t1/2 [6] | binding result [13] | further results
B1 | 11 nM | 19.2 nM | 0.00669 s⁻¹ | 349000 M⁻¹ s⁻¹ | 1.7 min | 23.2 nM | 0.00578 s⁻¹ | 250000 M⁻¹ s⁻¹ | 2 min | 98% | 0.076 nM | 41.1 nM | 0.0212 s⁻¹ | 516000 M⁻¹ s⁻¹ | 0.5 min | 46.5 nM | 0.015 s⁻¹ | 323000 M⁻¹ s⁻¹ | 0.8 min |  | 
B2 |  |  |  |  |  |  |  |  |  |  |  |  |  |  |  |  |  |  |  |  | % Activation [7]: 100%; EC50, SRE-luc activation [7]: 1.4 nM; % Activation [8]: 100%; EC50, SRE-luc activation [8]: 1.1 nM; EC50, SRE-luc activation [9]: 0.41 nM; EC50, SRE-luc activation by ligand [10]: 1.9 nM; EC50, SRE-luc activation by ligand [11]: 0.73 nM and 1.4 nM; EC50, SRE-luc activation by ligand [12]: 2.4 nM and 2.2 nM
B3 | 1 nM | 2.3 nM | 0.00197 s⁻¹ | 860000 M⁻¹ s⁻¹ | 5.9 min | 37.2 nM | 0.0237 s⁻¹ | 640000 M⁻¹ s⁻¹ | 0.5 min | 64% |  | 4.4 nM | 0.00549 s⁻¹ | 1.25e+06 M⁻¹ s⁻¹ | 2.1 min | 64 nM | 0.053 s⁻¹ | 820000 M⁻¹ s⁻¹ | 0.2 min |  | 
B4 | 9.1 nM | 26.6 nM | 0.00297 s⁻¹ | 111000 M⁻¹ s⁻¹ | 3.9 min | 47.6 nM | 0.00316 s⁻¹ | 66000 M⁻¹ s⁻¹ | 3.7 min | 31% | > 100 nM | 58.9 nM | 0.0139 s⁻¹ | 236000 M⁻¹ s⁻¹ | 0.8 min | 109 nM | 0.0142 s⁻¹ | 130000 M⁻¹ s⁻¹ | 0.8 min |  | 
B5 | 1.3 nM |  |  |  |  |  |  |  |  | 34% | > 100 nM |  |  |  |  |  |  |  |  | no binding | binding result [14]: no binding
B6 | 0.5 nM |  |  |  |  |  |  |  |  | 8% |  |  |  |  |  |  |  |  |  | no binding | binding result [14]: no binding
B7 |  |  |  |  |  |  |  |  |  |  |  |  |  |  |  |  |  |  |  | no binding | binding result [14]: no binding
